Assay results published in US20210205413A1 (Nektar Therapeutics, priority 2018, published 2021).
“Also recorded” adds a separate entry of the source.

Experiments:
[1] = Phase I ascending multiple-dose study in patients with SLE: pharmacokinetics; format: in vivo, human; conditions: Multi-Dose Study
Description: The effects on SLE disease activity are also evaluated. Twelve SLE patients with minimal to moderate disease activity are randomized to each of four dose cohorts, nine of whom received multiple 1.0 mg/mL aqueous solution sub-cutaneous doses of RUR-IL-2-20 kD, while three received placebo. […] In Cohort 1, a starting dose of 3.0 μg/kg is administered three times at two-week intervals (Days 1, 15, and 29). This starting dose is based on the favorable safety and PD profile of single sub-cutaneous doses of RUR20kD-IL-2 previously determined in the study described above. The subsequent dose levels in Cohorts 2, 3, and 4, respectively, were up to two-fold that of the previous dose cohort. Patients in Cohorts 1-3 received three doses of study drug at two-week intervals over a total of four weeks. Doses to be evaluated over the course of the study range from 3.0 μg/kg to 24 μg/kg. […] After receiving the final dose of RUR20kD-IL-2 or placebo, patients are followed for an additional fifty days to evaluate safety, PK, PD, and preliminary efficacy. Eight of twelve subjects in each cohort are evaluated two weeks after the third dose of the final patient by the Safety Review Committee for possible safety issues. In addition, all patients in Cohort 4 are evaluated by the Safety Review Committee twice: (1) two weeks after the first eight subjects receive their third dose and (2) two weeks after all subjects receive all doses of study drug. Immunologic changes, including Tregs, CD4^+-T cells, CD8^+-T cells, and NK cell responses, cytokine levels, and available PK data, in addition to safety findings, are used to determine dose levels. The primary objective of the study is to evaluate the safety and tolerability of RUR20kD-IL-2 administered as multiple ascending subcutaneous doses to patients with SLE. […] Results depicting preliminary PK data from the ascending multi-dose study are compared with data from the single subcutaneous study in the below Table 15: […]

[2] = test system: CD4+ and CD8+ T cells; test: Phase I single ascending dose study in healthy volunteers: Tcon cells; format: in vivo, human
Description: A double-blind, randomized, placebo-controlled study is conducted to evaluate the safety, tolerability, pharmacokinetics, and pharmacodynamics of single ascending low sub-cutaneous doses of an RUR20kD-IL-2 composition (RUR20kD-IL-2) in healthy volunteers. […] Twelve subjects are randomized to each dose cohort, nine of whom received a single subcutaneous dose of RUR20kD-IL-2 while three received placebo. […] The drug product is supplied in single-use glass vials and stored at 2-8° C. […] Placebo is a commercially available 0.9% sodium chloride solution. A starting dose of 0.3 μg/kg is chosen using the minimally anticipated biological effect level (MABEL) approach and is supported by the no observed adverse effect level (NOAEL) in the most sensitive species from nonclinical toxicology studies.
The primary objective of the study is to evaluate the safety and tolerability of RUR20kD-IL-2 administered as a single subcutaneous dose. […] In a first phase of the study, immune markers are tested pre-dose up to 20 hours post-dose. Specifically, Tregs, CD4^+-T cells, CD8^+-T cells, natural killer (NK) cells, cytokines, soluble CD25, and RNA are tested in RUR20kD-IL-2- and placebo-receiving cohorts. In subsequent phases, the same immune markers are also tested at 4-, 5-, 6-, 7-, 8-, 10-, 12-, 15-, 18-, 20-, 25-, 30-, 40, and 50-days post-dose.

[3] = test system: Balb/c mice (KLH DTH model); test: Antigen dependent, T cell-mediated DTH model with KLH rechallenge; format: in vivo
Description: To develop the DTH model, Balb/c mice are sensitized with a subcutaneous administration of a model antigen keyhole limpet hemocyanin (KLH) emulsified in complete and incomplete Freund's adjuvant. […] Inflamed ears are subjected to immunohistochemistry (IHC) to quantify percent of FoxP3+ Treg cells post KLH challenge. The specificity of response is assessed after an additional 3-4 weeks with no treatment by either KLH rechallenge or conducting sensitization and challenge with an unrelated antigen ovalbumin (OVA). […] Post ten days of 2nd sensitization, mice are challenged with OVA eight times orally, every alternative day. […] Severity of allergic response is assessed by clinical scoring within 30-45 min of post 8th challenge. Further, serum mast cell protease 1 (MCPT 1) and OVA specific IgE titers are quantified. The percent Treg is determined by flow cytometry in peripheral blood and in spleen.

[4] = Single dose pharmacokinetics in rats (IV and SC, LS-2016-2033); format: in vivo, Sprague-Dawley Rats
[5] = Sprague-Dawley rats, single IV 0.01 mg/kg, plasma, mean ± SE
[6] = Sprague-Dawley rats, single IV 0.1 mg/kg, plasma, mean ± SE
[7] = Sprague-Dawley rats, single IV 1 mg/kg, plasma, mean ± SE
[8] = Sprague-Dawley rats, single SC 0.01 mg/kg, plasma, mean ± SE
[9] = Sprague-Dawley rats, single SC 0.1 mg/kg, plasma, mean ± SE
[10] = Sprague-Dawley rats, single SC 1 mg/kg, plasma, mean ± SE

Which AUC0-14 d ([1]; 3.0 μg/kg, Median (n = 9)) does the source give for “(1,3-bis(methoxypoly(ethylene glycol)10kDcarbamoyl)-2-propanoxy)-4-butanamide)interleukin-2) [RUR20kD-IL-2]” here?
Its AUC0-14 d is 185 ng·days/mL.

And the Cmax ([1]; 3.0 μg/kg, Median (n = 9))?
Its Cmax is 0.018 µg/mL.

What about the tmax ([1]; 3.0 μg/kg, Median (n = 9)) of the same substance?
The tmax was 140 h.

What about the AUC0-14 d ([1]; 3.0 μg/kg, max) of the same substance?
The AUC0-14 d was 291 ng·days/mL.

And the Cmax ([1]; 3.0 μg/kg, max)?
The Cmax was 0.026 µg/mL.

What about the tmax ([1]; 3.0 μg/kg, max) of the same substance?
The tmax was 336 h.

What about the AUC0-14 d ([1]; 3.0 μg/kg, min) of the same substance?
The AUC0-14 d was 113 ng·days/mL.

What about the Cmax ([1]; 3.0 μg/kg, min) of the same substance?
Its Cmax is 0.015 µg/mL.

And the tmax ([1]; 3.0 μg/kg, min)?
Its tmax is 48 h.

And the Cmax ([1]; 6.0 μg/kg, Median (n = 7))?
Its Cmax is 0.014 µg/mL.

What about the tmax ([1]; 6.0 μg/kg, Median (n = 7)) of the same substance?
The tmax was 140 h.

What about the AUC0-14 d ([1]; 6.0 μg/kg, max) of the same substance?
Its AUC0-14 d is 206 ng·days/mL.

What about the Cmax ([1]; 6.0 μg/kg, max) of the same substance?
The Cmax was 0.022 µg/mL.

What about the tmax ([1]; 6.0 μg/kg, max) of the same substance?
The tmax was 336 h.

What about the AUC0-14 d ([1]; 6.0 μg/kg, min) of the same substance?
Its AUC0-14 d is 43 ng·days/mL.

And the Cmax ([1]; 6.0 μg/kg, min)?
Its Cmax is 0.005 µg/mL.

What about the tmax ([1]; 6.0 μg/kg, min) of the same substance?
The tmax was 96 h.

And the “absolute number of CD8+ T cells and percentage of Ki67+ CD8+ T cells” value ([2]; single SC 13.5 μg/kg)?
Its value is “small increases”.

And the “percentage or numbers of T cell populations (CD4+, CD8+)” value ([2]; single SC dose, any dose)?
Its value is “no changes in percentage or numbers of T cell populations (CD4+, CD8+); also recorded: no changes in percentages or numbers of conventional CD4+ or CD8+ T cells”.

And the “inflammatory response to KLH rechallenge” value ([3]; SC 0.003-0.3 mg/kg q3d, day 0 through day 8)?
Its value is “suppressed the inflammatory response to KLH rechallenge in a dose dependent manner”.

What about the “FoxP3+ Treg cells in inflamed ears (IHC)” value ([3]; post KLH challenge) of the same substance?
The value was “significant infiltration of FoxP3+ Treg cells”.

And the “durability and specificity of suppressive effect on inflammation” value ([3]; re-challenge post 3-4 weeks without further administration, same and unrelated antigen (OVA))?
Its value is “durable and antigen-specific”.

What about the AUCinf [4, 5] of the same substance?
Its AUCinf is 17.8 ± 1.00 µg·h/mL.

And the AUClast [4, 5]?
Its AUClast is 17.8 ± 0.90 µg·h/mL.

What about the CL [4, 5] of the same substance?
The CL was 13.4 ± 0.72 mL/day/kg.

What about the Half-life [4, 5] of the same substance?
Its Half-life is 30 ± 3.84 h.

And the MRTinf [4, 5]?
Its MRTinf is 44.9 ± 5.04 h.

What about the Vss [4, 5] of the same substance?
The Vss was 0.0251 L/kg.

What about the AUCinf [4, 6] of the same substance?
Its AUCinf is 120 ± 8.00 µg·h/mL.

What about the AUClast [4, 6] of the same substance?
Its AUClast is 120 ± 8.00 µg·h/mL.

What about the CL [4, 6] of the same substance?
The CL was 20.2 ± 1.4 mL/day/kg.

What about the Half-life [4, 6] of the same substance?
The Half-life was 40.1 ± 0.24 h.

And the MRTinf [4, 6]?
The MRTinf was 52.3 ± 0.96 h.

What about the Vss [4, 6] of the same substance?
Its Vss is 0.0441 ± 0.0035 L/kg.

What about the AUCinf [4, 7] of the same substance?
Its AUCinf is 877 ± 39.0 µg·h/mL.

And the AUClast [4, 7]?
The AUClast was 870 ± 35 µg·h/mL.

And the CL [4, 7]?
Its CL is 27.4 ± 1.2 mL/day/kg.

And the Half-life [4, 7]?
The Half-life was 37.4 ± 5.28 h.

And the MRTinf [4, 7]?
Its MRTinf is 45.6 ± 3.84 h.

And the Vss [4, 7]?
Its Vss is 0.0526 L/kg.

What about the “Absolute Bioavailability” value ([4]; Sprague-Dawley rats, single SC 0.01 mg/kg) of the same substance?
The value was 40.2%.

What about the AUCinf [4, 8] of the same substance?
Its AUCinf is 7.16 ± 0.53 µg·h/mL.

What about the AUClast [4, 8] of the same substance?
The AUClast was 7.12 ± 0.51 µg·h/mL.

What about the Cmax [4, 8] of the same substance?
The Cmax was 0.095 ± 0.006 µg/mL.

And the Half-life [4, 8]?
Its Half-life is 32.4 ± 1.4 h.

What about the MRTinf [4, 8] of the same substance?
Its MRTinf is 64.8 ± 1.4 h.

What about the tmax [4, 8] of the same substance?
Its tmax is 31.9 ± 7.92 h.

And the “Absolute Bioavailability” value ([4]; Sprague-Dawley rats, single SC 0.1 mg/kg)?
The value was 29.8%.

What about the AUCinf [4, 9] of the same substance?
The AUCinf was 35.7 ± 5.10 µg·h/mL.

And the AUClast [4, 9]?
Its AUClast is 35.5 ± 5.10 µg·h/mL.

What about the Cmax [4, 9] of the same substance?
Its Cmax is 0.38 ± 0.04 µg/mL.

What about the Half-life [4, 9] of the same substance?
The Half-life was 46.1 ± 1.9 h.

And the MRTinf [4, 9]?
Its MRTinf is 82.1 ± 6.72 h.

What about the tmax [4, 9] of the same substance?
Its tmax is 48 ± 0 h.

What about the “Absolute Bioavailability” value ([4]; Sprague-Dawley rats, single SC 1 mg/kg) of the same substance?
Its value is 46.0%.

And the AUCinf [4, 10]?
Its AUCinf is 404 ± 79.0 µg·h/mL.

What about the AUClast [4, 10] of the same substance?
The AUClast was 398 ± 74.0 µg·h/mL.

And the Cmax [4, 10]?
The Cmax was 4.86 ± 0.93 µg/mL.

And the Half-life [4, 10]?
The Half-life was 30.5 ± 7.68 h.

What about the MRTinf [4, 10] of the same substance?
The MRTinf was 67.7 ± 3.84 h.

What about the tmax [4, 10] of the same substance?
The tmax was 55.2 ± 7.92 h.

What about the “Vss relative to species-specific plasma volume” value ([4]; rats) of the same substance?
Its value is 1-2 fold.

And the Bioavailability ([4]; rats, SC, range over doses)?
The Bioavailability was 29.8-46.0%.

What about the tmax ([4]; rats, SC, range over doses) of the same substance?
Its tmax is 24 to 55.2 h.

What about the half-lives ([4]; rats, intravenous or subcutaneous dosing, range) of the same substance?
The half-lives was 1.25 to 2.44 days.

And the “Plasma clearance (CL)” value ([4]; rats, range over doses)?
The value was 13.4 to 27.4 mL/day/kg.
